Data taken from a protein production outcome set (Wang et al. 2014).

Assay: label from the status in PepcDB records
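Note: failed if final PepcDB status was selected cloned or expressed and not failed if soluble or beyond.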

Sequence	protein production
MKILTQSLPNSSAAYLQGYLRENTDSSVTYPTVIIVPGGSYTHIPERQAEDLALAWVARGYQAFFLRYSFISEKTPLLPNPVIELAQSVAAIHAHATTWHVDLRRLAVAGFSVGGHITALFNDWWSEADFNQQAHTTPEQLKVQAVILGYPVISPDLGFPTDAATLATWSTTPKKIAADQHVTAANAPTFIWVTANDPLVPVQNALAYAQASLTHGVDTELHVFHNGPHGLALANSVTAWKPGTDLPHVAHWLDLATEWLQDLKLEHHHHHH	not failed
MAILHGSWILNEQESCLFIWGETWRSPQVDFNFAEISLNPLALSALELSEWLQSQHQAIAKLLPQQLEKRTSKAASSVKINLLTHSQIIALPTEISQPRKKETILISPVHSAALASESDSEVYLQTWRVEGFCLPPSAAIKLLTSLPLNITSGENAFLGGDLRFWSQIARWSLDLISRSKFLPIIQRQPNNSVSAKWQVLLDSAVDGTRLEKFAAKMPLVCRTYQEIGSGESPIYIDFPSQPQDLILGFLNSAIDTQLREMVGNQPVVETRLMASLPSAVRQWLQALIAASNSIDADAVGLERLEAALKAWTMPLQYQLASKNQFRTCFELRSPEPDETEWTLAYFLQAADDPEFLVDAATIWQNPVEQLIYQQRTIEEPQETFLRGLGLASRLYPVIAPTLDTESPQFCHLKPMQAYEFIKAVAWRFEDSGLGVILPPSLANREGWANRLGLKISAETPKKKPGRLGLQSLLNFQWHLAIGGQTISKAEFDRLVALKSPLVEINGEWVELRPQDIKTAEAFFTARKDQMALSLEDALRLSSGDTQVIEKLPVVSFEASGALQELIGALTNNQAVAPLPTPKNFQGQLRPYQERGAAWLAFLERWGLGACLADDMGLGKTIQFIAFLLHLKEQDVLEKPTLLVCPTSVLGNWEREVRKFAPTLKVLQYHGDKRPKGKAFQEAVKKHDLVITSYSLIHRDIKSLQGIPWQIIVLDEAQNVKNAEAKQSQAVRQLETTFRIALTGTPVENRLQELWSILDFLNPGYLGNKQFFQRRFAMPIEKYGDAASLNQLRALVQPFILRRLKTDRDIIQDLPDKQEMTVFCGLTGEQAALYQKAVETSLAEIESAEGLQRRGMILALLIKLKQICNHPAQYLKINTLEQHSSGKLQRLEEMLEEVLAESNTYGVAGAGRALIFTQFAEWGKLLKPHLEKQLGREIFFLYGGTSKKQREEMIDRFQHDPQGPPIMILSLKAGGVGLNLTRANHVFHFDRWWNPAVENQATDRVFRIGQTRNVQVHKFVCNGTLEEKIHDMIESKKQLAEQVVGAGEEWLTELDTDQLRNLLILDRSTVIDEEAD	failed
MTRYLRLSGLEPFVLTPDIPFVNVGERTNVTGSARFRKLITNRDYAAALEVARDQVQNGAQILDVNMDEGLIDSKAAMVEFLNLIASEPDIARVPLMIDSSKWEVIEAGLKCVQGKPVVNSISLKEGEESFRRQAGLCLAYGAAVVVMAFDEEGQADSFARKTTICARAYRILVEEVGFPPEDIIFDPNVFAVATGIEEHDNYGVDFIEAARWIRANLPHAHVSGGVSNLSFSFRGNEPVREAMHAVFLYHAIRAGMDMGIVNAGQLAVYDQIDPDLREACEDVVLNRKPKQGGTATERLLALAER	failed
MKALLPGLYLLPVPIPYPLKTVNLYLLQGAGEVALVDTALGTRAARGALELHLAELGLCFQDVKTILLTHHHPDHYGLSGFFEGLGARVFLHEEEFARGHRFWREPEAFAEASWRLFLDHGTPEGALQGIRETVEKTRERVHPPQNPLPLRDGEALEVAGKRLRVLWTPGHADGHAAFYLEEEGVLLAGDALLEKVSPNVGLWAYTRENPLKDFLRSLDRLADLGARVAYAGHFGPIADVRQRAEELKAHHQARLEALLALLDGPKTAWELSLHLFPQELDPAGRRFAFAETLAHLEYLREEGAVGRGGPPYRYFRR	not failed
MAESIFRKLRDGGEEGELAPALTIEETVASPFGLDVSGYLLTNLSSSILAGKSSSQGLVLITFSRSPSFYLQLLKQKGIVVSSSSKWIRILDCYTDPLGWIDQSSTSFSEGSSLIKLHKCVSDLKKLFSSIIEAGRVRSLSKGLYEIKSDCFGAELVGTGKTRFCVAIDSKREVIIYLNFESAQISSVFWSLNTDLHQEKVTNALEYISTMKANLEPLCPSSDGQRNALENLFSVHQDFGKGRFHVRFKLRKGRVRVMSEEYHVDQSGINFSPISSVDTVIAATKSLLPKASYLDLLFNYLVQFNLQLSEKERVEKEKVVLPFEHQDDGKSNEIYDGRRSLVDGKIETTPLSSMELQTDVVSSGKGGEIIYFRDSDDEHPDSDEDPDDDLDI	not failed
MGWEFFSLETLQELARQYGYGAVFFGIALENAGIPIPGETITLLGGFLAGSGDLSYGGVLIAAIAGAVLGDSCGYWVGRWGGWPLLTRAAQLFNIPQEKLDQARHKFSQNGAAAVFFGRFVTLLRIFAGPMAGIVRMPYGKFLLYNIGGASVWAAITVSLAYFLGRVVTIEQIIAWTTQFSWFALAAVVGMVGIYFVFHFLQKRFDQTIESTIGDRPQ	failed
MDRSLLMAIIMLVLGNNIVILSDSLIKLLDGFEAPFQFVLYRQISATLMLLPFMLLFKRPLLPKNIRWHATRAHIFLLGTVFMVISLTTLPLATANAIFYAAPIITVVLARMFFKERVTRLSLITAVLGMVGVLVIVNPSSTNIFALAALVVATTLALNNLLVKKLPAEHSILDTLYLTNLLGIPLASAMAWFEGASFDVSTFLISVGSSLFAMIYAGTCVFAYRAAESNKVTSAEYTGLIGAVILGIVFFTETPDARFYIGSVLIIAPLTVLTLRNSNRSA	failed
MLAMKLGIVGLGGWVTGAHIPALTDLGIKVDYCADIDEKRVKDLSQKTGCKGYLDYKEMLRNENPDLVLVAVPHSLHAIIALDAINNDANVYVEKPMATSFQEALTLVEASRKRNKILVVGHENRFNPAMLIAKKLIRGGEVGKIYHMRGFYIRQRGIPTSPTFIKKDLAKGGAVFDIGTHIIDLLLFLSDFPTPKSVTGKTYNAFSEDKTKFSAYPSPNLPNFKVEVEDFGSAFLKLGDEISAYVEVSWASYIKENKMEVVILGDNGGIHIDNGVLNFMRNIEDELFISSPLTQQKGSVYREVWRTVMESISKGFPEYPLCSAEQGAIGVAILESIYKSALEGREVKIDIPQWFLKQFQPRALEHHHHHH	failed
EVPDLPEEPSETAEEVVTVALRCPNGRVLRRRFFKSWNSQVLLDWMMKVGYHKSLYRLSTSFPRRALEVEGGSSLEDIGITVDTVLNVEEKEQSSQ	not failed
MSFVAGVIRRLDETVVNRIAAGEVIQRPANAIKEMIENCLDAKSTSIQVIVKEGGLKLIQIQDNGTGIRKEDLDIVCERFTTSKLQSFEDLASISTYGFRGEALASISHVAHVTITTKTADGKCAYRASYSDGKLKAPPKPCAGNQGTQITVEDLFYNIATRRKALKNPSEEYGKILEVVGRYSVHNAGISFSVKKQGETVADVRTLPNASTVDNIRSIFGNAVSRELIEIGCEDKTLAFKMNGYISNANYSVKKCIFLLFINHRLVESTSLRKAIETVYAAYLPKNTHPFLYLSLEISPQNVDVNVHPTKHEVHFLHEESILERVQQHIESKLLGSNSSRMYFTQTLLPGLAGPSGEMVK	failed
MKYNKDGQTFLLVLDKGEDIVEVLTQFAMEQEMKFGSVSGIGACDNVTLIFYNLDTQKYESREVNEALELTSLLGNISHIDDKPFAHLHGTFGTRDFQTLSGHLTKAVVSATAEIVIQMTNLDVNRTHDEETGLNLLRP	failed
MNLILTILSALGSFIVTNVDDIFVLMLLFSQARSQAKTGNSGIVSMESKGNRIYPRDIVIGQYLGFALLVLISLLATFGVTLIPDQWVGLLGLIPIYLGVKLFIKGEDEDEGNILSNLNKFNKFYLSVAFITFANGGDNIGIYVPFFSTLNNNQLIITVVTFFIMVAVWCLIGYRLARFRYVSETLEKYGRWIIPIVFIGLGIYIMVENETFRAILSLVN	failed
MTQTNNPLHGITLETIITQLVEHYGWEELGARIKIRCFTEAPSIKSSLRFLRKTDWAREKVEYLYLKTNKLPLPAAKSIQAPAKEPSKKSAPKPNSKPTQTKVVTPTPAVEGQVNSHIWGKRDLEHHHHHH	not failed
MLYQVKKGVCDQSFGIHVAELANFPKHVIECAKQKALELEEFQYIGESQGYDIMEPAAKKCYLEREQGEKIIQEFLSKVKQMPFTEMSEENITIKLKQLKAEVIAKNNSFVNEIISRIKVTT	failed
MNNSFRNKIHEQSKENLSDDRHKKSDRTLIVFNRKTPLYFYFFEQVRYITGSIYILIETPSSRNLPIYSNICIPISSHPNTNYRPKKRKKNPPTVYLTTIILIMGLLSLEDTIKEKLKDRKNAHFMLVDGMSKLLTEKVKNCQSLDFQVSGVKWRLVIRLSRGRKDHLSFVLEITDEKCTGSTWDVKFNFKIGIVPQTGPDYCFVLVGHQNEKKRSQGLANFISHTDLKERFLVNDKAGFYAEISDVQPNFPVTRIPRTMGTAERFKLIEFSPKNSRFTWKITQFSSFDGEEHSSYEFTVGPRRWKLVMYPKGNGDGKGNSLSLYLFASDYVTNGPKGGTLAIYKLRVLDQLNRNHCETECRYWFPYNPVNQMDSLWGRPKFLPLEELHKSSRGFLVNDQIYIGVEISIVSTTEYL	failed
MKYSWNKTVFPIAAIFSFRLLGLFLLIPVFTLYATNLKGATPTLIGLALGSYGLAQGLLQIPFGMLSDKLGRKPMIAIGLLLFAGGSLLGAVTHSIAGMITARILQGAGAIGSVLIALLADLTLDEQRTKAMAIVGITIGTSFSLAMIISPALTHYYGLSGVFYLTAALAVLGIMILYLIIPNPSKEQFHADSEPSLSLIKPVVTDQHLQRLNFGIFCQHFILTATFFAIPMLLKYQIENGHLHQQWHFYLPLMLFSFILMVPFIIISERKKRLKTVFVISVLLTTFTQGLLVLASQNWYWFCILMFVYFVSFNVLEATLPSLVSKLASPGSKGTAMGIYSTSQFLGIFFGGSLAGILYQWYDNQAIFLINMILSCLWFIISLSMKSNVYFSTLILPFTANNEESKLVVNQLLKVAGIKEVILSKDENTLYVRVDNEEYSTGSAEKILHQSTIYQ	failed
MAEEAALNFADFYDAELALHNAHFRVTAAVGRSDRVLDVGCGAGQTTRDAARAAEAGRAHGIDLSATMLEIARRRSAEEGLPNATFELADAQNYHFAKGEFDLCISRFGVMFFADPAVAFANIANAVRPGGRFIFMVWQGRDHNEWATAIHEALDPDSTGPVAAGKAFSLSETSVTSGLLETAGFTAIEFREINEPVFYGPDPETALVTIQTFENVKNALDRPATTAEIRARLLDMLEAHQTPHGVQFDSRAWLITGGRYGDSPPCFIGDFRSA	failed
MRYGRTVPVTEAAELPPAPEQAREVFGDRFADAVRYAELLAEAGVQRGLIGPREVPRLWERHLLNCAVLSEVVPEGVTVCDVGSGAGLPGIPLALVREDLKITLLEPLLRRTNFLTEVVELLGLDHVTVIRGRAEEVMGKIPPVHVVTARAVAPLDRLATWGIPLLRPYGEMLALKGDTAEEELKSAATALSKLGAVETSVLHVGEGVVDPLSTVVRVEVGESPGGVRFAAKRAKAARTGRTRRRR	failed
MRRCFSKITDCHLGFKNSNFLLVGSEVGSGSVTRTITTTTSERLFSSSYAAHQVDQIKDNPVSDMLIDKFGRLHTYLRISLTERCNLRCQYCMPSEGVELTPKPQLLSQSEIVRLAGLFVSAGVNKIRLTGGEPTVRKDIEEICLQLSSLKGLKNLAITTNGITLAKKLPRLKECGLDSLNISLDTLVPAKFEFLTRRKGHDRVMKSIDTAIELGYNPVKVNCVIMRGLNDDEICDFVELTRDKPINVRFIEFMPFDGNVWNVKKLVPYAEVMDKVVKRFPSIKRMQDHPTETAKNFTIDGHCGSVSFITSMTEHFCAGCNRLRLLADGNFKVCLFGPSEVSLRDPLRSGADDEALREIIGAAVKRKKAAHAGMLDIAKTANRPMIHIGG	failed
MSLEKPYIISVYALIRNEKGEFLLLRRSENSRTNAGKWDLPGGKVNPDESLKEGVAREVWEETGITMVPGDIAGQVNFELTEKKVIAIVFDGGYVVADVKLSYEHIEYSWVSLEKILGMETLPAYFRDFFERFDRENKKPSKLFIEGHHHHHH	not failed
